The record followed here is the supplement of paper PMC9112550, “Optimization of the antimicrobial peptide Bac7 by deep mutational scanning” (BMC Biology, 2022).
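Further: peptides expressed intracellularly from a pBAD plasmid library in pooled LB shake-flask culture, induced with 0.3% L-arabinose, DNA abundance read by NGS, three biological replicates, DESeq2 with apeglm shrinkage.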

The series concerns Escherichia coli TOP10. Put plainly: shrunken log2 fold change of peptide-encoding DNA abundance (4.5 h post-induction vs induction); higher = less antimicrobial activity (less host growth inhibition). The following applies: time post-induction: 4.5 h; library: site-saturation at positions 5, 18, 19, 20.
As to RRIRYRPPRLPRPRPRPKMTPRP, the “shrunken log2 fold change” value was -0.728.
On to RRIRLRPPRLPRPRPRPEQPPRP, for which the “shrunken log2 fold change” value stood at 0.437.
The result for RRIRERPPRLPRPRPRPTATPRP reads 0.259; that for RRIRTRPPRLPRPRPRPMCYPRP, -0.252; that for RRIRVRPPRLPRPRPRPQFYPRP, -0.806.
As to RRIRLRPPRLPRPRPRPECSPRP, the “shrunken log2 fold change” value was 0.177.
The result for RRIRERPPRLPRPRPRPYSMPRP reads -1.48; that for RRIRIRPPRLPRPRPRPMTLPRP, 0.0505; that for RRIRNRPPRLPRPRPRPKRKPRP, 0.226.
As for RRIRCRPPRLPRPRPRPVTAPRP, the “shrunken log2 fold change” value is 0.108.
Regarding RRIRCRPPRLPRPRPRPQKTPRP, the “shrunken log2 fold change” value was -0.162.
The result for RRIRVRPPRLPRPRPRPCKIPRP reads -0.376; that for RRIRARPPRLPRPRPRPQMDPRP, 0.099.
The result for RRIRERPPRLPRPRPRPLVRPRP reads -0.192; that for RRIRERPPRLPRPRPRPFLVPRP, -0.119.
As for RRIRSRPPRLPRPRPRPWVCPRP, the figure is 0.101; as for RRIRMRPPRLPRPRPRPEGTPRP, 0.0716.
Take RRIRTRPPRLPRPRPRPNSWPRP: the “shrunken log2 fold change” value is -0.413.
Regarding RRIRWRPPRLPRPRPRPSKDPRP, the “shrunken log2 fold change” value was -0.412.
RRIRSRPPRLPRPRPRPVTCPRP: the “shrunken log2 fold change” value is -0.299.
As for RRIRGRPPRLPRPRPRPYRVPRP, the “shrunken log2 fold change” value is -0.0183.
The result for RRIRLRPPRLPRPRPRPREVPRP reads 0.59; that for RRIRFRPPRLPRPRPRPPKTPRP, 0.0214; that for RRIRARPPRLPRPRPRPLIWPRP, 0.359.
The result for RRIRCRPPRLPRPRPRPQPRPRP reads 0.745.
On to RRIRNRPPRLPRPRPRPLSKPRP, for which the “shrunken log2 fold change” value was -0.176.
As for RRIRWRPPRLPRPRPRPDARPRP, the figure is -0.018; as for RRIRRRPPRLPRPRPRPNLKPRP, -0.0818; as for RRIRNRPPRLPRPRPRPMCSPRP, -0.0636.
In the case of RRIRNRPPRLPRPRPRPEKLPRP, the “shrunken log2 fold change” value is -0.00804.
As to RRIRLRPPRLPRPRPRPEAWPRP, the “shrunken log2 fold change” value worked out at 0.0169.
For RRIRGRPPRLPRPRPRPGAIPRP, the “shrunken log2 fold change” value came out at 1.44.
With RRIRERPPRLPRPRPRPVYDPRP, the “shrunken log2 fold change” value is -0.0514.
The result for RRIRYRPPRLPRPRPRPEDYPRP reads -0.00116; that for RRIRIRPPRLPRPRPRPMVVPRP, -0.0948; that for RRIRHRPPRLPRPRPRPLGEPRP, 0.433.
Consider RRIRYRPPRLPRPRPRPDAPPRP, for which the “shrunken log2 fold change” value was -0.0708.
Consider RRIRMRPPRLPRPRPRPMEEPRP, for which the “shrunken log2 fold change” value was found to be 2.45.
As for RRIRIRPPRLPRPRPRPMYNPRP, the figure is -0.429; as for RRIRERPPRLPRPRPRPHNFPRP, 0.0533; as for RRIRIRPPRLPRPRPRPFTCPRP, 0.0493.
In the case of RRIRPRPPRLPRPRPRPMIIPRP, the “shrunken log2 fold change” value is -0.152.
Consider RRIRFRPPRLPRPRPRPNGFPRP, for which the “shrunken log2 fold change” value turned out to be 0.000958.
The result for RRIRARPPRLPRPRPRPIEEPRP reads -0.0473; that for RRIRIRPPRLPRPRPRPSNWPRP, -0.257.
As for RRIRRRPPRLPRPRPRPTIPPRP, the figure is -0.0701; as for RRIRLRPPRLPRPRPRPCQWPRP, -0.0969; as for RRIRFRPPRLPRPRPRPNWLPRP, -0.0999.
As for RRIRIRPPRLPRPRPRPGLFPRP, the figure is -0.0275; as for RRIRYRPPRLPRPRPRPMRVPRP, 0.135.
